Values of other authors, collected in PMC2871139.
Read-outs that look alike come from different tables or passages of the source. One block for each substance: values may come before it.

Legend:
A1 [1] = target: A1 (UniProt Q07440)
A1 [2] = target: A1 (UniProt Q07440); remark: listed apart in the source
A1 [3] = target: A1 (UniProt Q07440); remark: listed apart in the source
A1 [4] = target: A1 (UniProt Q07440); remark: listed apart in the source

UniProt Q07440, sequence (Q07440 whole entry): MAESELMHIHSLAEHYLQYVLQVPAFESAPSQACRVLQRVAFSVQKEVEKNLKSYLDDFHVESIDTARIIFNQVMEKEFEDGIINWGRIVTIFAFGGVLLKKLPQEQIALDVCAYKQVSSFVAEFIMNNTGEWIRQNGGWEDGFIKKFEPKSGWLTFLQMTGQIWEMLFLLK

Kd (A1 [1]): < 3 nM
Substance: Bak BH3 (from UniProt O08734)

Kd (A1 [2]): < 3 nM
Substance: Bid BH3 (from UniProt P70444)

Kd (A1 [3]): 180 nM
Substance: Bmf BH3 (from UniProt Q91ZE9)

Kd (A1 [4]): < 3 nM
Substance: Puma BH3 (from UniProt Q9BXH1)
